Measurements taken from the RNAGym collection of RNA variant scans (doi:10.1073/pnas.2313332121).
This sample holds only a part of the variants without activity.

B1: TPR 5TU (parent)
chain: GGAUCUUCUCGAUCUAACAAAAAAGACAAAUCUGCCACAAAGCUUGAGAGCAUCUUCGGAUGCAGAGGCGGCAGCCUUCGGUGGCGCGAUAGCGCCAACGUUCUCAACUAUGACACGCAAAACGCGUGCUCCGUUGAAUGGAGUUUAUCAUG

Variants of: B1
Test: polymerase ribozyme fitness, log enrichment relative to wild type (log ratio); higher = more active; in vitro selection for triplet polymerase activity
In short: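 The heterodimeric triplet polymerase ribozyme's subunits were each mutagenized into PCR-built libraries and transcribed. Every library was selected once, in triplicate, by annealing with a biotinylated primer, the partner subunit and triplets, incubating frozen at −7 °C, gel-excising extended constructs, capturing on streptavidin beads and running RT-PCR. Input and output libraries were Illumina-sequenced, with genotypes kept only at ≥10 input reads and ≥1 read per output. Fitness, from inverse-variance-weighted replicate averages, is the base-2 logarithm of genotype enrichment over wild-type enrichment.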

Variant | polymerase ribozyme fitness (log ratio)
U9A C27U C72U | ≤ -4.2
C8A G62A G92A | ≤ -4.2
U6G C96A A122U | -0.578
U7A C54A G58C G92C A107U C116A | ≤ -4.2
C8A G67U U77A G83U C87G U134A G141C U144G | ≤ -4.2
U7G G25A A28U C54A C85U U148G C149U | ≤ -4.2
U7A C96U | -2.73
C8U U31G A40G G42U A52C C79G G84A C103A G133A U148G | ≤ -4.2
U7A A17U G25C G88C C116A | ≤ -4.2
U7C C35A C87A C95U C116G | ≤ -4.2
U6G C57A U102G | -1.76
U7A C35A A39U G50A G92U C95A U130A U135A | ≤ -4.2
C8A G86A C87U A138U | ≤ -4.2
U7A A22U U44A C51U G67A G94C C99U G141C | ≤ -4.2
U7A G42U C76G C96G C99A U144A C149G | ≤ -4.2
U9A A30C A40G A41C C57U C95G | ≤ -4.2
U6G U33A G42U C57U A64C C85G A107G G117C | ≤ -4.2
U6G U9G U31A G48A C76G C87A U111C G140U | ≤ -4.2
U9A U13G A29C U82G G84U A91G G94U G128C G133A A138U | ≤ -4.2
C8G G11A A19C G50A C69A G70A C93U | ≤ -4.2
C8A C76A G88U G94U C132G U139C | ≤ -4.2
U6G A26U A37C G50C U53A C57A U82G C103G | ≤ -4.2
U9A C10U U53A A66U C87A A119U G126A G141A | -4.03
U7G U13A A17U A98U A107C U146C | ≤ -4.2

Variant | polymerase ribozyme fitness (log ratio)
U9A G48A G80C C87G A107U A113U | ≤ -4.2
C8G G94A | -3.64
C8A U9C C18A A19G G58U G84A U144C A147C | ≤ -4.2
U9C A97G | -2.82
U9A U31G C36A C93G C103G G140C | ≤ -4.2
C8G U56G A91G | ≤ -4.2
U9A C35U A121U G136A | ≤ -4.2
U7C C14U U53A C96U U104C C116A G124U U135G | ≤ -4.2
C8U A73G G83A | ≤ -4.2
U6G U45C C76A C93G C103A | ≤ -4.2
U6G A17C A37G A52C C54U C96A A122U U134C | ≤ -4.2
U9C A26U C54U G92A | ≤ -4.2
U6G C10A A40G A60G C75A G80C A107U G126A G133U U139G G143C | ≤ -4.2
C8G A29U | -4.04
C8G G34A G124A A137C | ≤ -4.2
C8A A17C G62A G68A C85U U111G | ≤ -4.2
C8G G11U G50A C116G U146G | ≤ -4.2
U7C U13G A20C U31A C51U U53G C87G A89G C93U U139C A142U G143U G152A | ≤ -4.2
U6G C93A A98G | -1.61
C8G A41U A49G C95U A147U | ≤ -4.2
U6G A12U | -0.722
U7A G25U A39C A49U C54G C95U U111G | ≤ -4.2
U9A C93A A142C | -3.81
C8G A40U U53A C87A C108G | ≤ -4.2

Variant | polymerase ribozyme fitness (log ratio)
U6G C38A A41C C95U U104C G126U | -2.03
C8G A24U A26G A52C C93G | ≤ -4.2
C8A G136A | -3.96
U6G G50U G83C A120U | -0.29
C8A C57A G74A C118U | ≤ -4.2
U7G C18U A30U G59U U77A G83C A138C | ≤ -4.2
C8U C14G C32A C36G G83A G117C | ≤ -4.2
C8A C36A G68C C96U C99A G128C | ≤ -4.2
U9A A21G A28C U45A A52C C87A G128A G136U | ≤ -4.2
U7C C93G | -4.04
U7A A16U G58C G71C C93U A115C U134C | ≤ -4.2
C8A G141A | -3.13
C8U C63U C72U C123U G126U | ≤ -4.2
C8A C14G A21G G25A U45C C75A G81U C85G C87G | ≤ -4.2
U7A A37G A47C G59C C72U G84C G88A C108A G141C | ≤ -4.2
U9A U78C G84U C99G A113U A115C G117U U135C U144A U148G | ≤ -4.2
C8U G11A G86A U109C C123A C132G | ≤ -4.2
C8A A19C C35G A52C C87G | ≤ -4.2
U9A A22G C36A A39C G65U C87U C95A G126A G136A U139C | ≤ -4.2
U9A A40U G59U U134A | ≤ -4.2
U9A A24U U55A G68U U82C G94A A110U G136A | ≤ -4.2
U7G U55C C99U | ≤ -4.2
U7C A12U | -2.57
U7G C38U | -2.77

Variant | polymerase ribozyme fitness (log ratio)
U7A C32G U33C C87A C96U U101C C116A U145G U146C | ≤ -4.2
U6G A28U C38U A66G C95G A120U A150U | ≤ -4.2
U6G A16U C38U G83C U139A G141A | ≤ -4.2
C8G U31C C32G G48A A91U A122C G133A | ≤ -4.2
C8G U78A | ≤ -4.2
C8A U55A | -3.18
U6G A12C C35G A60C C75G A110G | ≤ -4.2
C8A C85A C87A G124A | ≤ -4.2
C8A A12C G42C C72U G86A | ≤ -4.2
C8G A16C A21G G48C C75A C87U A110U U144G | ≤ -4.2
C8G C131U U144G | ≤ -4.2
U7C U53G G94A | ≤ -4.2
C8U C87G G100C U139C C149G | ≤ -4.2
U7C C8G A20U U55A A66U G88A C99G G143U | ≤ -4.2
U9A A28C A64C C72U U78G | ≤ -4.2
C8A C76G G86U U109G G141U | ≤ -4.2
U7C A113G U139C | ≤ -4.2
C8A U13G A30U U82A U101G | ≤ -4.2
C8A G86U | -3.72
U7G C103A | -3.85
U9A A20U C36A A52C A113U G124C | ≤ -4.2
C8G G92U | -3.57
U7G G50C A52C G84A C114U A138G | ≤ -4.2
U7G A17C A39C A91G C114G | ≤ -4.2

Variant | polymerase ribozyme fitness (log ratio)
U7C G50A G58A G68A A97C G141C U146A | ≤ -4.2
U7G A21G U61G C85U C87A A106C | ≤ -4.2
C8U C116A | -2.08
C8U C85U | -3.19
C8U C85A | -2.75
C8U A20C G50A U82G C93U C95U A142G | ≤ -4.2
U7A C93U | -3.98
U7A C93G | ≤ -4.2
U7C C85G | -3.47
U7C C85U | -2.04
U6G G94A A115C | -1.5
C8U C10U C32G C35G C95U G136A | ≤ -4.2
C8G A16C C93U A137G | ≤ -4.2
U7A A40C C54A G59C C87U | ≤ -4.2
U6G U15A C95G C96U U101G C103A C131A C149A | ≤ -4.2
C8G C54U | -3.66
U7A G11U G50A A64G G68A C72U C87U A115U A122G C149A U151A | ≤ -4.2
U7G C75G G86C | ≤ -4.2
C8U A17G A39G G84U C116A C118G U139C | ≤ -4.2
C8A A23C C38U A142G | ≤ -4.2
C8A C38U C57U C79G C96G | ≤ -4.2
U6G C35U G58C A73G G140U | ≤ -4.2
C8A C85U C116U G141A | ≤ -4.2
U6G U31G A73G G86A A137U | ≤ -4.2

Variant | polymerase ribozyme fitness (log ratio)
C8A G50U C76U G83A C116G C131A U145C | ≤ -4.2
U6G A16G A24C U145C | ≤ -4.2
C8A A40U G71U C85G | ≤ -4.2
U9A A16C C85A C87A | ≤ -4.2
C8G G58A | -3.1
U7A C87U C96A A150U | -3.72
C8A A23C A26C U33C U78G A98G U144G | ≤ -4.2
C8A C79U A120C C125G A142U U146C | ≤ -4.2
C8U A20C G50C G71A C96A A98G C114U U148C | ≤ -4.2
C8A U33C U44A A52U C85U U104A A106G C125G G152U | ≤ -4.2
U7C C38U G62C | -3.44
C8A | -2.84
C8U | -2.39
C8G | -2.95
C8U A19G C79U C85G | ≤ -4.2
C8G A21C U77A G92A C118A G136U | ≤ -4.2
U7G C87U | -3.04
C8U A22U C51U G62A C93G C103A C105G | ≤ -4.2
U7A C38U G65A A107G G136U U146C | ≤ -4.2
U9C A21C C57A C93A A115C | -4
C8U A17G C36A G50C A115G | ≤ -4.2
C8U U31A C32G C54U G83U U104A A107C | ≤ -4.2
U9C C27G U44G C85U C93G | ≤ -4.2
U6G A52C C96G A115G | -3.74

Variant | polymerase ribozyme fitness (log ratio)
C8A G42A A49C G83U C93A G94A | ≤ -4.2
C8U A22C A39G C85G A106G A119G | ≤ -4.2
C8U U61A C95A U146G | ≤ -4.2
C8U G42C C85A | ≤ -4.2
U6G A20U G25A U31G C87A C96U C129A G136A G140C A150C | ≤ -4.2
U6G A40C U144A | 0.287
U7G A52U G140C | ≤ -4.2
U6G A23C G88C A97U | ≤ -4.2
U6G A16G C85U C125A | -1.05
C8G U31A U33G U53G U55G G94A G126C | ≤ -4.2
C8A A37C G59C C75A G92A | ≤ -4.2
U6G U146A | -1.17
C8A C54U | -3.64
U6G A47G U53G U55A C76G C85G C103G G128U C129A U145G | ≤ -4.2
U7A C93U A115G | ≤ -4.2
U6G A26U A52G G141U U145G | ≤ -4.2
C8U U9A C10U A17G A66G A91C | ≤ -4.2
U6G C76U C93G | -2.95
U6G A73G C87U G136U | -2.92
C8G U31A A49C U53A G84A A119U A121C A137U | ≤ -4.2
U9C A19G A30G C35A U56A C87G G117U U148C | ≤ -4.2
C8U U15G U44A C54U G84A U101G A110U A115G G133U | ≤ -4.2
C8A A49G A60U C75U U78C C85G C116G G140A | ≤ -4.2
